Results taken from the supplement of paper PMC9170038.

System: MS2 coat protein
Assay: apparent KD of MS2 coat protein; designed switch direction (-1 OFF switch, 1 ON switch): -1; higher = weaker reporter binding
Summary of the method: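 Three titration conditions were used: no input, 200 uM small-molecule ligand, and an oligonucleotide input. In each, SNAP-549-labelled MS2 coat protein was raised from 0.7 or 1.5 nM, doubling, to 3 µM over designed RNA switches transcribed on Illumina chips by stalled E. coli RNA polymerase. Curve fits of normalised cluster fluorescence gave values whose per-design median over clusters is the apparent KD.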

[1] = Eterna round: R95, input ligand: FMN 200 uM
[2] = Eterna round: R95, input ligand: microRNA oligo, concentration not stated
[3] = Eterna round: R95, input ligand: none
[4] = input ligand: microRNA oligo, concentration not stated

Sequence | apparent KD of MS2 coat protein [1] [nM] | apparent KD of MS2 coat protein [2] [nM] | apparent KD of MS2 coat protein [3] [nM] | apparent KD of MS2 coat protein (input ligand: FMN 200 uM) [nM] | apparent KD of MS2 coat protein (input ligand: none) [nM] | apparent KD of MS2 coat protein [4] [nM]
AAAAAACAAGGAUAUACGAAGGAUGAUUAUCUUAAUUUUUGACAUGAGGAUCACCCAUGUAGAAGGUGUUAAAA [JR_Exclusion2_Sub008] (puzzle: Exclusion 2) | 125 | 51.5 | 52.9 | – | – | –
GGGCGUGAAGGAUAUACAUGAGGAUCACCCAUGUGGGAGGAGAGUGGUGAGGAGGCUGGUAGAAGGUCAGGAGG [JR_Exclusion3_Sub008] (puzzle: Exclusion 3) | – | 27.7 | – | – | – | –
CUGAACUGAGGAUAUACAUGAGGAUCACCCAUGUGAUGUAGUGCACGCGUACGUGUACGUAGAAGGCAGUUCAG [Mat - Exclusion 3 - Eli Mod - D42] (Eterna round: R97, puzzle: Exclusion 3) | – | – | – | 56.1 | 19.8 | –
AGUAACCGUCACGAAAGUGAUGGUUACACAAGCAAAUGUACAUGAGGAUCACCCAUGUCCUCAUUUGCUCGUCUUAU [Sensor 3 - 45] (puzzle: Sensor v3, turn-off variant 2) | 17.2 | 379 | 18.3 | – | – | –
UUGUUACAUGAGGAUCACCCAUGUGAGGAUAUGGUUCAGUACUGUCAUGUCACGUACUCCAGAAGGCACAUGUU [1st #31] (Eterna round: R97, puzzle: Exclusion 1) | – | – | – | 363 | 120 | –
CCUCCGGCAGGAUAUGCAGGGAGGAUGUUGUGUUAUUGGUAACAUGAGGAUCACCCAUGUAGAAGGGCCAAUAC [Eternabot (L2) Solution 42] (Eterna round: R97, puzzle: Exclusion 2) | – | – | – | 17.9 | 15 | –
GAAGCACAUGAGGAUCACCCAUGUAAGGAUAUAUUUCUGGUCCGGCCGGACCAGUACCGUAGAAGGUAUGUAAA [Excls-IIIa] (puzzle: Exclusion 1) | – | 11.8 | – | – | – | –
GUGUCACAUGAGGAUCACCCAUGUGAGGAUAUCAUGCUUCGUAGUAAACUACGAAGUGUGAGAAGGCACAUGAC [Omei Ex1 E1] (Eterna round: R97, puzzle: Exclusion 1) | – | – | – | 71 | 47.8 | –
CUCUCUCGAGGAUAUACCGUAUGGUGGAAUCUCCUCGGAAGACAUGAGGAUCACCCAUGUAGAAGGCGAGAUGG [Eternabot (L2) Solution 64] (Eterna round: R97, puzzle: Exclusion 2) | – | – | – | 144 | 31.3 | –
CGGCGACAUGAGGAUCACCCAUGUGAGGAUAUGACGGGAAAAGCGUGAGCGGUUUGUGUCAGAAGGCGCGUAGG [salish99_ex1_r4_084] (Eterna round: R97, puzzle: Exclusion 1) | – | – | – | 20.8 | 28.7 | –
AAUAAUAAAGUCAGGAUAUCUAGAGCCUCGGCUCUAGAGAAGGGACAUGAGGAUCACCCAUGUCACUCAAUAAU [BmEx4/3-D2] (Eterna round: R97, puzzle: Brourd's mod of Exclusion 4) | – | – | – | 20.2 | 17.7 | –
AAACCUGCCCAUGACCGCAAGCCUUUUGCUUGUCUUACCACAUGAGGAUCACCCAUGUGACAUGGGCUCCUUAUAAA [Solabixe] (puzzle: Sensor v3, turn-off variant 2) | 14.1 | 10.5 | 13.5 | – | – | –
UGGGUACUCCAUAGAAGAAACAUGAGGAUCACCCAUGUAGGGCAAGUUUUUUGCUCGUCAUAGGUUGAGGGAUUGGA [JR_SV3TOV1_Sub016] (puzzle: Sensor v3, turn-off variant 1) | 685 | 343 | 978 | – | – | –
ACAUGAGGAUCACCCAUGUCUGGCUGGUCUGUUCCGGCUGUUGAGGAUAUAGUCCGGUGUUCGCGCUAGAAGGUGAGGGCUGGA [Aenatbe mod 43] (Eterna round: R96, puzzle: Exclusion NG 3) | – | – | – | 54.5 | 57 | 32.9
GAUUAACAUGAGGAUCACCCAUGUGAGGAUAUGGACUUGCCCACUUACCCUUUAGAGUCUAGAAGGCGCAUCUC [1986#30] (Eterna round: R97, puzzle: Exclusion 1) | – | – | – | 28.7 | 20.8 | –
GUUGCGUUUGUGAGGAUAUGCUGGUCCUUGGUUCGGCAGAAGGCACAUGAGGAUCACCCAUGUGGUGUCGUUCC [salish99_Bmod_ex4_051] (puzzle: Brourd's mod of Exclusion 4) | – | 13.3 | – | – | – | –
GUUACACAUGAGGAUCACCCAUGUAAGGAUAUGCUGCGGUCGCGCUGACGUGACUGCAGCAGAAGGUACAAAUG [Mat - Mod of JL D56] (puzzle: Exclusion 1) | – | 59.3 | – | – | – | –

Sequence | apparent KD of MS2 coat protein [1] [nM] | apparent KD of MS2 coat protein [2] [nM] | apparent KD of MS2 coat protein [3] [nM] | apparent KD of MS2 coat protein (input ligand: FMN 200 uM) [nM] | apparent KD of MS2 coat protein (input ligand: none) [nM] | apparent KD of MS2 coat protein [4] [nM]
UUUUAACAUGAGGAUCACCCAUGUGAGGAUAUCGAAAUUUAUAUUUAUAUUAAUUAAACGAGAAGGCACAUUUU [JMF 83] (puzzle: Exclusion 1) | – | 74 | – | – | – | –
UAGGAGAGAGUGAGGAUAUCCGGAAGAGAGGAUCAGGAGAAGGCACAUGAGGAUCACCCAUGUAAAAGAGGGAA [I think I solved risk of not working] (Eterna round: R97, puzzle: Brourd's mod of Exclusion 4) | – | – | – | 63.5 | 51.9 | –
GGAUCGUAUGUGAGGAUAUACCACUGGAUACAGUGGUAGAAGGCACAUGAGGAUCACCCAUGUCCUAUCGAUCC [Fiskers BMX 4 - 54] (puzzle: Brourd's mod of Exclusion 4) | – | 132 | – | – | – | –
AGUACUAACACGUCGGUGUUAGUACAAUAAGCUUGUGAAACAUGAGGAUCACCCAUGUCCUCAUAAGCUCGUCUUAU [salish99_TOv2_r3_080] (Eterna round: R96, puzzle: Sensor v3, turn-off variant 2) | – | – | – | 16.4 | 17.8 | 492
AGCUUUUUGUUCGUCUUAUACAUGAGGAUCACCCAUGUAUUGGACCGCAUCGAUAGAUGUAGACCAAGAAGCAUGGG [Omdei Mir OFFv1 C5] (Eterna round: R97, puzzle: Sensor, turn-off variant 1) | – | – | – | 50.6 | 48.2 | –
CUAGCGAGUGUAGGAUAUCGGACUGUUUCAGUCUGAGAAGGACAUGAGGAUCACCCAUGUGUAGCUACGUGAGUAGCACGCUAG [JL ENG1 3.88] (Eterna round: R96, puzzle: Exclusion NG 1) | – | – | – | 40.2 | 22.3 | 15
GUGGAACAUGAGGAUCACCCAUGUGAGGAUAUGUGAGAAGGAUUUGAGAUGGAGAGGGACAGAAGGCACUAGGA [JR_Exclu1_Sub083] (puzzle: Exclusion 1) | 36.3 | 39.4 | 55.8 | – | – | –
UGUUGUCGCGCAGGAUAUGAGGAUCACCCAUAUAGAGGAUAUGAAAAGAAGGCUCUGAGGAUCACCCAGAAGGGCGGGACAACU [pwkr exNG2 2xF5 2xFMN.23] (Eterna round: R96, puzzle: Exclusion NG 2) | – | – | – | 1390 | 222 | 141
AGUACUGACGCGUCGGUGUUAGUACAAUAAGCUUGUGAAACAUGAGGAUCACCCAUGUCCUCAUAAGCUCGUCUUAU [salish99_TOv2_r3_082] (puzzle: Sensor v3, turn-off variant 2) | 15.9 | 720 | 15.4 | – | – | –
AGGCCUCGAGGAUAUACAUGAGGAUCACCCAUGUCAUAAUAGAUUGUUAUGAGACAUCGUAGAAGGCGAUGGCC [Eternabot (L2) Solution 98] (Eterna round: R97, puzzle: Exclusion 3) | – | – | – | 78.1 | 30 | –
UGCGGGCUUUUGAGACCUCACAUGAGGAUCACCCAUGUGCUUGUCUUGUGGGUCGGUCGGUCGUUGGCUGGCUGGCG [Sensor-V1 #95] (Eterna round: R97, puzzle: Sensor, turn-off variant 1) | – | – | – | 20 | 19.3 | –
UUAGGUAAAGGAUAUGUAUGGGCGACCCAUAUGACCGAGUGACAUGAGGAUCACCCAUGUAGAAGGUUGCUGAU [Eternabot (L1) Solution 60] (Eterna round: R97, puzzle: Exclusion 2) | – | – | – | 125 | 95.7 | –
CAGUACUGAGGAUAUACAUGAGGAUCACCCAUGUGUUCCAGCUAGGAUACUAGCAAAAGUAGAAGGCAGUACUG [salish99_ex3_r3_095x] (puzzle: Exclusion 3) | 484 | 30.4 | 24 | – | – | –
AAGAACGGUAAGGAUAUCCAUGUGAAAUAAAGAGGAGAAGGUACCACAUGAGGAUCACCCAUGUGGCUCUCAAA [EX6 B.30] (Eterna round: R97, puzzle: Exclusion 6) | – | – | – | 13.8 | 11.5 | –
UUUCUUCAUAUCACAUGAGGAUCACCCAUGUUAUUCAUCGCGUAGGAUAUCGAGAAUUUUAAAUACGAGAAGGACGUAUUGAUA [JR_ExcNG3_Sub072] (Eterna round: R96, puzzle: Exclusion NG 3) | – | – | – | 43.4 | 38.8 | 31.1
GUUAAACAUGAGGAUCACCCAUGUAAGGAUAUGCUGCGGUCGAGAUGAAGUGAAUGCAGCAGAAGGUACAAUUG [Mat - Mod of JL D53] (puzzle: Exclusion 1) | – | 148 | – | – | – | –
UUAAUACAUGUAGGAUAUGCGUGGCGAAGCUAUGCAGAAGGACAUGAGGAUCACCCAUGUUCCAGCGUCCGCGUACGGAUGCAA [JL Eng1 1.21 mod 12] (Eterna round: R96, puzzle: Exclusion NG 1) | – | – | – | 14.2 | 14.2 | 12.4
